# Test results: patent publication US20120149028A1 (LUDWIG MAXIMILIANS UNIVERSITAT M NCHEN, published 2012)
# B1: variant PCNA-Chromobody of SEQ ID NO 18 fused to GFP (VHH)
# VHH: NVQLNESGGGLVQPGGSLRLSCAASGFTFSSYAMSWVRQAPGKGLEWVSEISPSGAVKAYSDSVKGRFTISRDNAKNRLYLQMNSLTPEDTGEYFCTKVQSPRTRIPAPSSQGTQVTVSS
# notes: Expressed in HeLa cells as a GFP fusion; not shown: linker and GFP
# Target: T1, endogenous PCNA (proliferating cell nuclear antigen) in HeLa cells (human (endogenous in HeLa cells), UniProt P12004 1-261)
# T1 construct: whole, on cells; Intracellular (nuclear) endogenous protein in living or fixed HeLa cells, not on the surface
# T1 sequence (P12004 whole entry): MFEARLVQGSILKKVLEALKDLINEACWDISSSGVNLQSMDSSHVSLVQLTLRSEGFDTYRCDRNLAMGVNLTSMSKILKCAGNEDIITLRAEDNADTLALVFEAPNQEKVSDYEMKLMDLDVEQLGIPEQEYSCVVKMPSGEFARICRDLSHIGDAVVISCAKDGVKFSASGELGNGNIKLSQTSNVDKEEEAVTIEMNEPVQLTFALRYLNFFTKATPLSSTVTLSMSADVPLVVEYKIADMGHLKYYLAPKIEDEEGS
# Assay: GFP fusion expressed in HeLa cells, epifluorescence microscopy
# Procedure: First, it was investigated, whether transiently expressed PCNA3p16-GFP colocalizes with RFP-PCNA or HcRedLigase, another S phase marker. To do so, HeLa cells were seeded on coverslips and transiently double transfected with expression vectors coding for RFP-PCNA or HcRed-Ligase and vector coding for PCNA-Chromobody PCNA3p16-GFP. 24 h after transfection cells were fixed in 4% PFA for 15 minutes at room temperature, permeabilized with 0,2% Triton-X-100 in PBS and the DNA was counterstained with DAPI. Slides were mounted in VectaShield and further analyzed by epifluorescence microscopy with appropriate filtersets for DAPI (D360_{—}40X/HQ460_{—}40M), GFP (HQ480_{—}40X/HQ535_{—}50M) and red fluorescent proteins (HQ565_{—}30X/HQ620_{—}60M) and an 63X/1.3 NA Plan Apo oil objective. As expected, RFP-PCNA as well as HcRed-Ligase localized to DNA replication sites in the nucleus of the cells. In both cases a colocalization of RFP-PCNA and HcRed-Ligase with the Chromobody PCNA3p16-GFP was detected (FIG. 3 A). […]
# To confirm that PCNA3p16-GFP recognizes endogenous PCNA located at active DNA replication sites, an antibody staining against PCNA and a BrdU pulse-chase experiment were performed. […] The primary anti-PCNA antibody (clone 16D10) (1:400) was detected by a secondary antibody coupled to the fluorescent dye Alexa568. […]
binder,measurement,value
B1,binding result,binds
